Measurements taken from IntAct's records for PubMed 29774127.

Assays:
[1] = molecular target: setb1_human SETDB1 (UniProt Q15047)
[2] = molecular target: ehmt2_human EHMT2 (UniProt Q96KQ7)
[3] = molecular target: SETDB1, Q15047-2
[4] = molecular target: ctnb1_human CTNNB1 (UniProt P35222)

effect of a mutation on the interaction [1]: increasing interaction
effect of a mutation on the interaction [2]: increasing interaction
effect of a mutation on the interaction [3]: increasing interaction
effect of a mutation on the interaction [4]: increasing interaction
Substance: Parafibromin (Homo sapiens) (from UniProt Q6P1J9) Y290F;Y293F;Y315F
